Test results reported in patent US20260242478A1 (published 2026).
Where no end group is shown, it is not given here.

Tests used:
PSMA Fab [1] = target: T1, PSMA Fab (biotinylated (site not stated)); assay: clonal phage ELISA on biotinylated PSMA Fab captured on neutravidin plates, anti-M13 HRP detection;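 further: crude clonal phage supernatants tested, before phage were added, wells were pretreated with PSMA antigen in blocking buffer or with blocking buffer only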
T1 construct: also called Anti-PSMA Fab; 006 PSMA Fab

PSMA Fab [2] = target: T1, PSMA Fab; assay: clonal phage ELISA on captured biotinylated PSMA Fab; competitor: PSMA antigen at saturating concentration
Procedure: (§1) Clonal phage were harvested as crude supernatants and screened via standard ELISAs. […] Prior to the addition of clonal phage. wells were incubated with blocking buffer and PSMA antigen or blocking buffer alone. Without washing or aspirating, clonal phage supernatants were then added to the wells and incubated for a short time. Wells were then washed followed by detection of bound phage using a horse radish conjugated anti-M13 antibody.

PSMA Fab [3] = target: T2, PSMA Fab; assay: clonal phage ELISA on captured PSMA Fab pre-incubated with PSMA antigen as competitor, anti-M13 HRP detection;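 further: crude clonal phage supernatants tested by ELISA, wells first treated with blocking buffer plus PSMA antigen, bound phage read out via HRP-linked anti-M13 antibody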
T2 construct: Biotinylated PSMA Fab captured on neutravidin coated plates in the phage ELISA; also called Anti-PSMA Fab; 006 PSMA Fab
Procedure: as §1

PSMA Fab [4] = target: T2, PSMA Fab; assay: clonal phage ELISA on biotinylated PSMA Fab captured on neutravidin plates, anti-M13 HRP detection;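 further: crude clonal phage supernatants tested, before phage were added, wells were pretreated with PSMA antigen in blocking buffer or with blocking buffer only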
Procedure: as §1

PSMA Fab (006 PSMA Fab) [5] = target: T3, PSMA Fab (006 PSMA Fab); assay: as above
T3 construct: also called Anti-PSMA Fab; anti-PSMA Fab
Procedure: as §1

PSMA Fab (006 PSMA Fab) [6] = target: T3, PSMA Fab (006 PSMA Fab); assay: clonal phage ELISA on captured PSMA Fab, wells pre-incubated with PSMA antigen as competitor, anti-M13 HRP detection;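 further: crude clonal phage supernatants added, with no intervening wash, to wells preincubated with PSMA antigen in blocking buffer, incubated briefly, then washed before detecting bound phage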
Procedure: as §1

Binder | Phage binding ELISA signal, Anti-PSMA Fab (PSMA Fab [1]) | phage binding ELISA signal (Anti-PSMA Fab, wells pre-incubated with PSMA antigen) (PSMA Fab [2]) | phage binding ELISA signal (Anti-PSMA Fab, PSMA antigen present) (PSMA Fab [3]) | Phage binding ELISA signal, Anti-PSMA Fab (PSMA Fab [4]) | also measured
HFKWCIPPWMCLEI [Phage-2798] | 0.588 | 0.298 | – | – | –
DLKWCVPTWMCNWS [Phage-2775] | – | – | 0.0692 | 0.639 | –
SMKMCTPPWMCEFA [Phage-2774] | – | – | 0.0631 | 0.641 | –
VLNWCTPPWMCSGI [Phage-2780] | – | – | 0.0732 | 0.624 | –
VTNWCTPPWMCEML [Phage-2793] | 0.596 | 0.213 | – | – | –
TPKWCTPAWMCVVS [Phage-2802] | 0.575 | 0.077 | – | – | –
VGKWCTPEWMCSGF [Phage-2789] | 0.6 | 0.0562 | – | – | –
EENWCIPVWMCERL [Phage-2786] | – | – | 0.0721 | 0.607 | –
GSNWCKPAWMCSVA [Phage-2777] | – | – | 0.0623 | 0.634 | –
SVKWCTPSWMCTEW [Phage-2788] | 0.601 | 0.104 | – | – | –
ESKWCVPTWMCAEN (cysteine pairing not given here; also: fused to pIII, displayed on bacteriophage) [Phage-2799] | 0.583 | 0.0578 | – | – | –
LNNWCTPAWMCVGY [Phage-2796] | 0.589 | 0.084 | – | – | –
ANHWCIPSWMCTEV [Phage-2753] | – | – | – | – | Phage binding ELISA signal, Anti-PSMA Fab (PSMA Fab (006 PSMA Fab) [5]): 0.692; Phage binding ELISA signal, Anti-PSMA Fab with PSMA antigen (PSMA Fab (006 PSMA Fab) [6]): 0.162
TQHWCTPIWMCEGL [Phage-2792] | 0.597 | 0.0819 | – | – | –
ERIWCTPKWMCETF [Phage-2797] | 0.589 | 0.0657 | – | – | –
VMKWCTPSWMCAEA (cysteine pairing not given here; also: fused to pIII, displayed on bacteriophage) [Phage-2790] | 0.599 | 0.0742 | – | – | –
GPKWCTPTWMCEFS [Phage-2776] | – | – | 0.0754 | 0.638 | –
FEKWCTPQWMCNSM [Phage-2795] | 0.59 | 0.0699 | – | – | –
TEKWCIPQWMCVRT [Phage-2794] | 0.592 | 0.0656 | – | – | –
SDNWCKPEWMCVGH [Phage-2801] | 0.578 | 0.0873 | – | – | –
DYKWCTPPWMCDSR [Phage-2800] | 0.58 | 0.0697 | – | – | –

Binder | Phage binding ELISA signal, Anti-PSMA Fab (PSMA Fab [1]) | phage binding ELISA signal (Anti-PSMA Fab, wells pre-incubated with PSMA antigen) (PSMA Fab [2]) | phage binding ELISA signal (Anti-PSMA Fab, PSMA antigen present) (PSMA Fab [3]) | Phage binding ELISA signal, Anti-PSMA Fab (PSMA Fab [4]) | also measured
VQAWCVPQWMCNQF [Phage-2772] | – | – | 0.0631 | 0.646 | –
VHKMCTPPWMCVTQ [Phage-2783] | – | – | 0.0908 | 0.621 | –
APQWCIPPWMCHDQ [Phage-2754] | – | – | – | – | Phage binding ELISA signal, Anti-PSMA Fab (PSMA Fab (006 PSMA Fab) [5]): 0.691; Phage binding ELISA signal, Anti-PSMA Fab with PSMA antigen (PSMA Fab (006 PSMA Fab) [6]): 0.0708
GNLWCSPPWMCFGM [Phage-2749] | – | – | – | – | Phage binding ELISA signal, Anti-PSMA Fab (PSMA Fab (006 PSMA Fab) [5]): 0.696; Phage binding ELISA signal, Anti-PSMA Fab with PSMA antigen (PSMA Fab (006 PSMA Fab) [6]): 0.0732
DVKWCKPRWMCNRD [Phage-2750] | – | – | – | – | Phage binding ELISA signal, Anti-PSMA Fab (PSMA Fab (006 PSMA Fab) [5]): 0.695; Phage binding ELISA signal, Anti-PSMA Fab with PSMA antigen (PSMA Fab (006 PSMA Fab) [6]): 0.0701
QDKWCTPTWMCEGL [Phage-2778] | – | – | 0.0777 | 0.631 | –
EDIWCIPSWMCGVI [Phage-2751] | – | – | – | – | Phage binding ELISA signal, Anti-PSMA Fab (PSMA Fab (006 PSMA Fab) [5]): 0.694; Phage binding ELISA signal, Anti-PSMA Fab with PSMA antigen (PSMA Fab (006 PSMA Fab) [6]): 0.0663
ETSWCRPTWMCEGM [Phage-2752] | – | – | – | – | Phage binding ELISA signal, Anti-PSMA Fab (PSMA Fab (006 PSMA Fab) [5]): 0.693; Phage binding ELISA signal, Anti-PSMA Fab with PSMA antigen (PSMA Fab (006 PSMA Fab) [6]): 0.0587
DQNWCIPHWMCVGI [Phage-2779] | – | – | 0.0883 | 0.625 | –
LWKSCTPEWMCAEW (cysteine pairing not given here; also: fused to pIII, displayed on bacteriophage) [Phage-2787] | 0.606 | 0.0991 | – | – | –
VPKWCTPSWMCASN (cysteine pairing not given here; also: fused to pIII, displayed on bacteriophage) [Phage-2773] | – | – | 0.0608 | 0.643 | –
GWNWCVPQWMCTTS [Phage-2781] | – | – | 0.121 | 0.623 | –
QDKMCRPDWMCMNQ [Phage-2782] | – | – | 0.0706 | 0.621 | –
DMKLCRPAWMCMHN [Phage-2784] | – | – | 0.0536 | 0.621 | –
SEKWCTPAWMCGDM [Phage-2747] | – | – | – | – | Phage binding ELISA signal, Anti-PSMA Fab (PSMA Fab (006 PSMA Fab) [5]): 0.7; Phage binding ELISA signal, Anti-PSMA Fab with PSMA antigen (PSMA Fab (006 PSMA Fab) [6]): 0.0842
WEKWCTPSWMCSGI [Phage-2791] | 0.598 | 0.0859 | – | – | –
DVKWCTPPWMCLSD [Phage-2785] | – | – | 0.1 | 0.613 | –
QMHWCMPPWMCEGI (cysteine pairing not given here; also: fused to pIII, displayed on bacteriophage) [Phage-2771] | – | – | 0.0705 | 0.65 | –
VVKMCKPLWMCGIS [Phage-2746] | – | – | – | – | Phage binding ELISA signal, Anti-PSMA Fab (PSMA Fab (006 PSMA Fab) [5]): 0.701; Phage binding ELISA signal, Anti-PSMA Fab with PSMA antigen (PSMA Fab (006 PSMA Fab) [6]): 0.0564
DPKWCTPSWMCDWR [Phage-2755] | – | – | – | – | Phage binding ELISA signal, Anti-PSMA Fab (PSMA Fab (006 PSMA Fab) [5]): 0.69; Phage binding ELISA signal, Anti-PSMA Fab with PSMA antigen (PSMA Fab (006 PSMA Fab) [6]): 0.0821
DWKWCIPAWMCSQD [Phage-2748] | – | – | – | – | Phage binding ELISA signal, Anti-PSMA Fab (PSMA Fab (006 PSMA Fab) [5]): 0.697; Phage binding ELISA signal, Anti-PSMA Fab with PSMA antigen (PSMA Fab (006 PSMA Fab) [6]): 0.0645
